The Kd is a measure of binding affinity in units of concentration. Lower therefore signals a tighter complex. By koff is commonly meant a measure of how fast the partners let go of each other. Read a high koff as fast dissociation. Broadly, the kon is the rate constant with which the complex forms.

For this assay, the target named is hTEM8-AP (human) (UniProt Q9H6X2). The assay is described as follows: Biocore (SPR) affinity measurement of anti-TEM8 Fab.
Chain of hTEM8-AP (human) (Q9H6X2 33-321): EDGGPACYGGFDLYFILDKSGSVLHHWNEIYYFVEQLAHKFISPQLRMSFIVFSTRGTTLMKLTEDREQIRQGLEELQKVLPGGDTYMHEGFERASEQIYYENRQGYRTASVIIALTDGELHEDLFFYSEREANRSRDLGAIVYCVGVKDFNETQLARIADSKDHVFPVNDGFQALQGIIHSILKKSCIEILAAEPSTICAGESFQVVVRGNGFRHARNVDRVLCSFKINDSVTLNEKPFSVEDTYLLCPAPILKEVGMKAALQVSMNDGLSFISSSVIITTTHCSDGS

Regarding “M830 anti-TEM8 fragment antigen-binding (Fab)”, the Kd was found to be 1.57 nM, the koff worked out at 0.000953 s⁻¹ and the kon was determined as 607000 M⁻¹ s⁻¹.

B1: M825 anti-TEM8 fragment antigen-binding (Fab) (Fab, V domains shown)
VH: QVQLVQSGAEVKKPGTSVKVSCKVPGYTFSSYAISWVRQAPGQGLEWMGGIIPIFGTTNYAQKFQGRVTITGEESTSTVYMELSSLRSEDTAVYYCARDTDYMFDYWGQGTLVTVSS
VL: SSELTQDPVVSVALGETVSITCQGDNLRDFYASWYQQKPGQAPLLVMYGKNRRPSGIPDRFSGSTSGNTLSLTITGAQAEDEADYYCSSRDNSKHVVFGGGTKVTVL
For B1, the dissociation constant Kd was 0.0591 nM, the off-rate (koff) is 0.00018 s⁻¹ and the kon turned out to be 3.05e+06 M⁻¹ s⁻¹.

The values above are taken from US20170112928A1.
